Measurements as given in patent US20260125455A1.

Assays:
[1] = target: human C5b6 complex (human) (UniProt P01031); test: ELISA, C5b6-coated wells, purified antibody
[2] = target: human C5b6 complex (human) (UniProt P01031); test: ELISA, C5b6-coated wells
[3] = target: human C5b6 complex (human) (UniProt P01031); test: ELISA, C5b6-coated wells, large-scale purified antibody

EC50 [1]	EC50 [2]	EC50 [3]	Binder
0.09 nM	0.09 nM		MoC601 HuG4K (chimeric C601 antibody) (antibody, human IgG4 S228P, kappa, V domains shown) VH: QVQLQQSGAELVKPGASVKISCKASGYAFSDYWMNWVKQRPGKGLEWIGQIYPGDDDTNYNGKFKGKATLTADKSSSTAYMQLSSLTSEDSAVYFCAREGYYGYTYVEYFDVWGTGTTVTVSS VL: QIVLTQSPAIMSVSPGEKVTLTCSASSSVSYMHWYQQKSGTSPKRWIYDTSKLASGVPARFSGSGSGTSYSLTISSMEAEDAATYYCQQWTSNPLTFGAGTKLELRR
		0.11 nM	C601HOKC4 HuG4K (antibody, human IgG4 S228P, kappa, V domains shown) VH: QVQLVQSGAEVKKPGESLKISCKASGYAFSDYWINWVRQMPGKGLEWMGQIYPGDDDTNYNPSFQGQATLSADKSISTAYLQWSSLKASDTAMYYCAREGYYGYTYVEYFDVWGTGTTVTVSS VL: QIVLTQSPATLSLSPGERATLSCRASSSVSYLHWYQQKPGQSPRLWIYDTSKRATGIPARFSGSGSGTDYTLTISSLEPEDFAVYYCQQWTSNPLTFGQGTKLEIKR
